Values quoted from earlier work as cited in publication PMC4819957.
pKd: −log10 of the molar value.

Molecular target: Pex3 (Homo sapiens) (UniProt P56589)
Chain of UniProt P56589 (P56589 whole entry): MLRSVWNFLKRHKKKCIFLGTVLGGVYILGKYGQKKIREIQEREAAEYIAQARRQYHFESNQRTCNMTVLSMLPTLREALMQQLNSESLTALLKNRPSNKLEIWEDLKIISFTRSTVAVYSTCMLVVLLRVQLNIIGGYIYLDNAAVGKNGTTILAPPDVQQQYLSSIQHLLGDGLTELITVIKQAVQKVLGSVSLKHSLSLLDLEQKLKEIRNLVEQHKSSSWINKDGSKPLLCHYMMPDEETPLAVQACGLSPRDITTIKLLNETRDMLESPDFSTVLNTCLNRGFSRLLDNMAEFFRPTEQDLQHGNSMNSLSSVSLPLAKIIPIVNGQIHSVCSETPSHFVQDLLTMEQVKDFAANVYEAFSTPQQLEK

- pKd: > 8.00
Substance: Pex19 (from UniProt P40855)
